In the supplement of paper PMC10567573:

B1: IKZF1 (parent)
chain: YHSQDRYEFSSHITRGEHRFHMS

Variants of: B1
Assay: protein stability index of a GFP-peptide fusion (GPS, HEK-293T) (PSI 1-6); higher = more stable
Details: c terminus: native
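Note: lentivirally expressed fusions sorted by FACS into six bins by GFP to DsRed ratio, PSI derived from sequencing read proportions per bin multiplied by bin number.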

In order of rising protein stability index:
1. YHSQDRYEFSSHITRVEHRFHMS  1.35
2. YHSQDRYEFSSHITRGEHRFKMS  1.37
3. YHSQDRYEFSSHITRGEHRVHMS  1.39
4. YHSQDRYEFSSHITRGTHRFHMS  1.4
5. YHSCDRYEFSSHITRGEHRFHMS  1.44
6. YHSQDRYEFSSHITRGEARFHMS  1.45
7. YHSQDRYEFSMHITRGEHRFHMS  1.48
8. YHSQDRHEFSSHITRGEHRFHMS  1.49
9. YHSQDRYEFSSHITRSEHRFHMS  1.5
10. YHSQDRYEFSSHDTRGEHRFHMS  1.52
11. YHSQDRYEFSSHITRGEHRFHFS  1.53
12. YHSQDRYEFSSHITRGGHRFHMS  1.56
13. YHSQDRYEFSSHITRHEHRFHMS  1.56
14. YHSIDRYEFSSHITRGEHRFHMS  1.57
15. YHSQDRYEFSSHITRGEHRFHMR  1.61
16. YHSQDRYEFSHHITRGEHRFHMS  1.61
17. YHSQDRYEFSSHITRGEHRFHMM  1.62
18. YHSQDRYEFSSHITRGEHRFHWS  1.65
19. YHSQDRYEFSIHITRGEHRFHMS  1.65
20. YHSQDRYEFSYHITRGEHRFHMS  1.67
21. YHSQDRYEFSSHITRGEHRFHML  1.68
22. YHSQDRYEFSSHITRGVHRFHMS  1.68
23. YHSQDRYEFSCHITRGEHRFHMS  1.68
24. YHSQDRYEFSSHITHGEHRFHMS  1.73
25. YHSQDRYEFSSHITRGEHRYHMS  1.75
26. YHSQDRYEFSSHITRGEHRFYMS  1.76
27. YHFQDRYEFSSHITRGEHRFHMS  1.76
28. YHSMDRYEFSSHITRGEHRFHMS  1.77
29. YHSYDRYEFSSHITRGEHRFHMS  1.77
30. YHSQDRYEFSSHVTRGEHRFHMS  1.78
31. YHSQDRYEFSSHITRGEPRFHMS  1.81
32. YHSQDRYEFSSHITRGEYRFHMS  1.83
33. YHSQDRYEFSSHITGGEHRFHMS  1.87
34. YHSQDRYEFSSHITRGEHRFSMS  1.89
35. YHSQDRYEFSSHITRGEHTFHMS  1.92
36. YHSQDRYEFSSHITRGETRFHMS  1.92
37. YHSRDRYEFSSHITRGEHRFHMS  1.94
38. YHSPDRYEFSSHITRGEHRFHMS  1.94
39. YHSQDRYEFSSHITRGRHRFHMS  1.94
40. YHSQDRYEFSSHITRGEHKFHMS  1.95
41. YHSQDRYEFSKHITRGEHRFHMS  1.95
42. YHSQDRYEFSGHITRGEHRFHMS  2
43. YHSQDRYEFSSHITRGEHRFHMF  2.01
44. YHSQDRYEFSSHITRGEHRFHMT  2.02
45. YHSQDRYEFSTHITRGEHRFHMS  2.02
46. YHSQDRYEFSSHITRGECRFHMS  2.04
47. YHSQDRYEFSSHMTRGEHRFHMS  2.04
48. YHSQDRYEFSSHITRGPHRFHMS  2.04
49. YHSQDRYEFSSHITRNEHRFHMS  2.04
50. YHSQDRYEFSSHITRGEHRSHMS  2.05
51. YHSQDRYEFSSHITRGEHRFHNS  2.06
52. YHSQDRYEFSSHITRGEHRFHTS  2.06
53. YHSQDRYEFSSHITRGWHRFHMS  2.07
54. YHSQDRYEFSQHITRGEHRFHMS  2.07
55. YHSLDRYEFSSHITRGEHRFHMS  2.08
56. YHSQDRREFSSHITRGEHRFHMS  2.08
57. YHSQDRYEFSSHITRGEHRFGMS  2.11
58. YHSQDRYEFSSHITRGEHRCHMS  2.12
59. YHSADRYEFSSHITRGEHRFHMS  2.13
60. YHTQDRYEFSSHITRGEHRFHMS  2.13
61. YHHQDRYEFSSHITRGEHRFHMS  2.14
62. YHSQDRYEFSSHITRGEHRFDMS  2.15
63. YHSQDRYEFSSHITRGEHIFHMS  2.17
64. YHSQDRYEFSSHITRGEHRFHMI  2.18
65. YHSQDRSEFSSHITRGEHRFHMS  2.2
66. YHSKDRYEFSSHITRGEHRFHMS  2.21
67. YHSQDRYEFSSHITRGEHRFQMS  2.22
68. YHSWDRYEFSSHITRGEHRFHMS  2.22
69. YHSQDRYEFSSHITRGEHRFNMS  2.27
70. YHSQDRYEFSSHITRGEHRFHMK  2.28
71. YHSGDRYEFSSHITRGEHRFHMS  2.3
72. YHSFDRYEFSSHITRGEHRFHMS  2.33
73. YHKQDRYEFSSHITRGEHRFHMS  2.33
74. YHSQDRYEFSSHHTRGEHRFHMS  2.36
75. YHSQDRYEFSAHITRGEHRFHMS  2.36
76. YHSQDRYEFSSHITRGEHRLHMS  2.37
77. YHSQDRYEFSSHITRREHRFHMS  2.38
78. YHSQDRYEFSSHITRGEHRFAMS  2.43
79. YHSQDRWEFSSHITRGEHRFHMS  2.46
80. YHSQDRYEFSSHITRGEHLFHMS  2.54
81. YHSQDRYEFSSHITRGEHRNHMS  2.56
82. YHSQDRYEFSSHITRGEHRFHAS  2.58
83. YHWQDRYEFSSHITRGEHRFHMS  2.61
84. YHSQDRYEFSSHITRGEFRFHMS  2.66
85. YHSQDRYEFSSHGTRGEHRFHMS  2.7
86. YHSQDRYEFSSHITRGEMRFHMS  2.75
87. YHSQDRYEFSSHITRGEHWFHMS  2.84
88. YHSQDRYEFSSHITRGIHRFHMS  2.84
89. YHSQDRYEFSSHITTGEHRFHMS  2.9
90. YHSQDRYEFSFHITRGEHRFHMS  2.9
91. YHSQDRYEFSSHITRGNHRFHMS  2.92
92. YHSQDRYEFSPHITRGEHRFHMS  3.03
93. YHSQDRYEFSSHITRGEHRFHCS  3.14
94. YHSQDRYEFSSHITREEHRFHMS  3.6
95. YHSQDRYEFSSHITRGEHRFHGS  3.65
96. YHSQDRYEFSSHITRGEHRIHMS  3.73
97. YHSQDRYEFSSHITRYEHRFHMS  4.64
